Data set [1] deals with DMRT1 (mouse) (UniProt Q9QZ59). Put plainly: competition. The settings on record: 40-fold excess unlabeled SELF; EMSA: 10 mM Tris-HCl pH 7.9, 100 mM KCl, 10% glycerol, 5 mM MgCl2, 1 mM spermidine, 0.075% Triton-X-100, 1 mM DTT, 1 ug BSA, 0.1 ug dI-dC, 75 ng plasmid DNA, 0.
In data set [2] the target is T1, DMRT5 (mouse) (UniProt A2A9A2).
T1 sequence: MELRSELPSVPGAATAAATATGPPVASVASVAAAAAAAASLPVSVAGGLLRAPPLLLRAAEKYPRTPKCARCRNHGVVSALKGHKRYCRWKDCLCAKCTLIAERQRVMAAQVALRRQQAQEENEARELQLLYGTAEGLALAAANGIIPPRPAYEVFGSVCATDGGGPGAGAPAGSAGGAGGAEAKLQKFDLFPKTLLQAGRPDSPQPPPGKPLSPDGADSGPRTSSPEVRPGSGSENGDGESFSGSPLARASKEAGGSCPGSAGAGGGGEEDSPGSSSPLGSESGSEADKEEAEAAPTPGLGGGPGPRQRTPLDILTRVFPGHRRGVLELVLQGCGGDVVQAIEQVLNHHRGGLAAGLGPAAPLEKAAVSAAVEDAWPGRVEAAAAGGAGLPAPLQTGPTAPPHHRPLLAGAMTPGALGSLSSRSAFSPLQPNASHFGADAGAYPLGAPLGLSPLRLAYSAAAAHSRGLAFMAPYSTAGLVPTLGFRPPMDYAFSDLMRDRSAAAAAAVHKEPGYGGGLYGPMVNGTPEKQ
The experiment in a line: competition. As to conditions: 40-fold excess unlabeled SELF; EMSA: 10 mM Tris-HCl pH 7.9, 100 mM KCl, 10% glycerol, 5 mM MgCl2, 1 mM spermidine, 0.075% Triton-X-100, 1 mM DTT, 1 ug BSA, 0.1 ug dI-dC, 75 ng plasmid DNA, 0.

Sequence of DMRT1 (mouse) (Q9QZ59 whole entry): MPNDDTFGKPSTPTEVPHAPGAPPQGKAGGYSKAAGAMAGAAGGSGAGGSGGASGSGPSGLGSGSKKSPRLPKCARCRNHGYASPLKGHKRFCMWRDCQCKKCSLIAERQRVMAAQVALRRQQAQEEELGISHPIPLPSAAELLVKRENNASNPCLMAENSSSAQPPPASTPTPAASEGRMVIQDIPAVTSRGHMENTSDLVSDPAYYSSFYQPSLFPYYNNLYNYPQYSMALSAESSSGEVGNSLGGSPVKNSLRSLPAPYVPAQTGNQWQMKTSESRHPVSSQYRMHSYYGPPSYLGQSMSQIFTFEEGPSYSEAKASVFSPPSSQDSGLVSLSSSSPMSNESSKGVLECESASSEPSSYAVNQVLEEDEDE

As to “TCGAGATTTGATACATTGTTGC / TCGAGCAACAATGTATCAAATC [DMRT1 consensus (1RE, general gel shift)]”, the binding signal (relative to SELF) in data set [1] and in data set [2] was 1 in each case.

For the origin of these results see PMC1931443.
